From the supplement of paper PMC9170038

Tested on: MS2 coat protein
Experiment: apparent KD of MS2 coat protein; designed switch direction (-1 OFF switch, 1 ON switch): -1; higher = weaker reporter binding
Procedure, shortened: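 SNAP-549-labelled MS2 coat protein was titrated, doubling from 0.7 or 1.5 nM to 3 µM, over designed RNA switches transcribed on Illumina chips by stalled E. coli RNA polymerase. Runs were done without input, with 200 uM small-molecule ligand, or with an oligonucleotide input. Apparent KD is the per-design median over clusters of curve-fitted normalised fluorescence.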

[1] = input ligand: microRNA oligo, concentration not stated
[2] = Eterna round: R95, input ligand: microRNA oligo, concentration not stated
[3] = Eterna round: R95, input ligand: FMN 200 uM
[4] = Eterna round: R95, input ligand: none

GUAACAUUAAAGGCUCGUGACAUGAGGAUCACCCAUGUAUGGACCGUUCCACUUACCGACAAGCUGUGAUCGUCCUU [Eternabot (L2) Solution 22] (Eterna round: R97, puzzle: Sensor, turn-off variant 1)
apparent KD of MS2 coat protein (input ligand: FMN 200 uM): 40.8 nM
apparent KD of MS2 coat protein (input ligand: none): 42 nM

GUAAUGAUUGUGAGGAUAUUUCAUAGAUAGAUAUUAGAGAAGGUACAUGAGGAUCACCCAUGUGUGAUCAUACA [Brourd's EX4 #73] (Eterna round: R97, puzzle: Brourd's mod of Exclusion 4)
apparent KD of MS2 coat protein (input ligand: FMN 200 uM): 672 nM
apparent KD of MS2 coat protein (input ligand: none): 1050 nM

GUAAUGUCCGAGGAUAUCCUUCUAAAUAUAUAUGGAGAAGGCGGUACAUGAGGAUCACCCAUGUCCAAAAUGGG [Parada] (Eterna round: R97, puzzle: Exclusion 6)
apparent KD of MS2 coat protein (input ligand: FMN 200 uM): 229 nM
apparent KD of MS2 coat protein (input ligand: none): 1680 nM

GUACUAAGUGUGAGGAUAUCACAGGACGUUCACUAUGAGAAGGUACAUGAGGAUCACCCAUGUAUCGUGGGUCA [Eternabot (Original) Solution 7] (Eterna round: R97, puzzle: Brourd's mod of Exclusion 4)
apparent KD of MS2 coat protein (input ligand: FMN 200 uM): 20.3 nM
apparent KD of MS2 coat protein (input ligand: none): 17.7 nM

GUACUACAUGAGGAUCACCCAUGUCAGGAUAUGGGAAUUUCAUCAAAAGAUGAAAUUCUUAGAAGGGACAGUAC [Omei Ex1 A5] (Eterna round: R97, puzzle: Exclusion 1)
apparent KD of MS2 coat protein (input ligand: FMN 200 uM): 24.6 nM
apparent KD of MS2 coat protein (input ligand: none): 22.2 nM

GUACUGAAGCUUUGCUUUAAUCGUACAUGAGGAUCACCCAUGUAGGAUAUGGUAGGCAAAGCUUACCAGAAGGACAGAGUGAUC [Mat - Exclusion NG 3 - Mod of JL - D67] (Eterna round: R96, puzzle: Exclusion NG 3)
apparent KD of MS2 coat protein (input ligand: FMN 200 uM): 103 nM
apparent KD of MS2 coat protein [1]: 92.1 nM
apparent KD of MS2 coat protein (input ligand: none): 93.1 nM

GUACUGAAGCUUUGCUUUAGUCGUACAUGAGGAUCACCCAUGUAGGAUAUGGUAGGCUUUGCUUACUAGAAGGACAGAGUGAUC [JL EXNG3 1.26] (Eterna round: R96, puzzle: Exclusion NG 3)
apparent KD of MS2 coat protein (input ligand: FMN 200 uM): 33.1 nM
apparent KD of MS2 coat protein [1]: 139 nM
apparent KD of MS2 coat protein (input ligand: none): 75.7 nM

GUACUGACAGGAUAUACAUGAGGAUCACCCAUGUGCCCUUAAAGAUGCAAAGCAUCUAGUAGAAGGGUCUGUAC [Omei Ex3 Model Bachelor's Dilema v23] (Eterna round: R97, puzzle: Exclusion 3)
apparent KD of MS2 coat protein (input ligand: FMN 200 uM): 66.1 nM
apparent KD of MS2 coat protein (input ligand: none): 33.4 nM

GUAGAGUAAGGAUAUGAUGAAUAGGAUAGAAUGGUUAGAAAUCAGAAGGUACAUGAGGAUCACCCAUGUAAUGU [Excluse me!!!! 13 - Jieux - Exclusion 4] (puzzle: Exclusion 4)
apparent KD of MS2 coat protein [2]: 21.4 nM

GUAGAGUAAGGAUAUGGUGAAUAGGAUAGAAUGGUUAGAAACCAGAAGGUACAUGAGGAUCACCCAUGUAAUGU [Excluse me!!!! 16 - Jieux - Exclusion 4] (puzzle: Exclusion 4)
apparent KD of MS2 coat protein [2]: 20.2 nM

GUAGAGUAAGGAUAUGUAGAAUAGGAUAGAAUGGUUAGAAUGCAGAAGGUACAUGAGGAUCACCCAUGUAAUGU [Excluse me!!!! 5 - Jieux - Exclusion 4] (puzzle: Exclusion 4)
apparent KD of MS2 coat protein [2]: 21.2 nM

GUAGAGUCAGGAUAUACAAGAUCGAAAGAUCGGCGGUCCAUACAUGAGGAUCACCCAUGUAGAAGGGACUCUAC [Eli x2 4.005] (Eterna round: R97, puzzle: Exclusion 2)
apparent KD of MS2 coat protein (input ligand: FMN 200 uM): 619 nM
apparent KD of MS2 coat protein (input ligand: none): 30.2 nM

GUAGAGUCAGGAUAUACGAGAUCGAAAGAUCAAAGAUUCCUACAUGAGGAUCACCCAUGUAGAAGGGACUCUAC [Eli x2 4.123] (Eterna round: R97, puzzle: Exclusion 2)
apparent KD of MS2 coat protein (input ligand: FMN 200 uM): 16 nM
apparent KD of MS2 coat protein (input ligand: none): 15.6 nM

GUAGAUCAGGCUUUCAUUGACAUGAGGAUCACCCAUGUUUUGAAAGGGUGAGAGAGGUGCUUCAUAUUCAGCUCUGA [JR_Sensorv2_tov_Sub1218] (Eterna round: R96, puzzle: Sensor v2, turn-off variant)
apparent KD of MS2 coat protein (input ligand: FMN 200 uM): 76.4 nM
apparent KD of MS2 coat protein [1]: 55.3 nM
apparent KD of MS2 coat protein (input ligand: none): 61.1 nM

GUAGCCCGAGGAUAUACAUGAGGAUCACCCAUGUAUCGUUCGAGAAGACUCGGCCCGUGUAGAAGGCGGUAUCC [Eternabot (L1) Solution 22] (Eterna round: R97, puzzle: Exclusion 3)
apparent KD of MS2 coat protein (input ligand: FMN 200 uM): 25.3 nM
apparent KD of MS2 coat protein (input ligand: none): 23.1 nM

GUAGCUGAUAAGGAUAUUGUACCUAACCUGCGUCGAGAAGGUGUCACAUGAGGAUCACCCAUGUUUAGGCAAAG [Eternabot (L2) Solution 22] (Eterna round: R97, puzzle: Exclusion 6)
apparent KD of MS2 coat protein (input ligand: FMN 200 uM): 24.4 nM
apparent KD of MS2 coat protein (input ligand: none): 29.5 nM

GUAGGGUCAGGAUAUACGCAGACGGUUUCGUCGGGUUAUCUACAUGAGGAUCACCCAUGUAGAAGGGAUCAUAC [Eternabot (L1) Solution 53] (Eterna round: R97, puzzle: Exclusion 2)
apparent KD of MS2 coat protein (input ligand: FMN 200 uM): 53.4 nM
apparent KD of MS2 coat protein (input ligand: none): 15.8 nM

GUAGGGUCAGGAUAUACGGGCGGGAGGAUGUAGUGGAGUUGGUAGAAGGGACAUGAGGAUCACCCAUGUGAGAA [JR_Exclu4_Sub053] (puzzle: Exclusion 4)
apparent KD of MS2 coat protein [2]: 27.3 nM

GUAUAACAUGUAGGAUAUGCGUGGCGAAGCUAUGCAGAAGGACAUGAGGAUCACCCAUGUUUUUGCGUCUGCGUACAGAUGCUA [JL ENG1 1.40] (Eterna round: R96, puzzle: Exclusion NG 1)
apparent KD of MS2 coat protein (input ligand: FMN 200 uM): 107 nM
apparent KD of MS2 coat protein [1]: 15.2 nM
apparent KD of MS2 coat protein (input ligand: none): 21.5 nM

GUAUAACUACACGGGCUCAACAUGAGGAUCACCCAUGUAAUAUACGCAAGCUUUUUGCUUGUCUUAUCUGUCCGUGA [Aanrius] (puzzle: Sensor v3, turn-off variant 1)
apparent KD of MS2 coat protein [3]: 12.3 nM
apparent KD of MS2 coat protein [2]: 9.56 nM
apparent KD of MS2 coat protein [4]: 11.4 nM

GUAUACAAGCAAAGAUCCCACAUGAGGAUCACCCAUGUGCUCGUCUUAUAAGGUACUGUGACGAAAGUCACGGUACC [Mat - Sensor, turn-off var - Eli Mod - D103] (Eterna round: R97, puzzle: Sensor, turn-off variant 1)
apparent KD of MS2 coat protein (input ligand: FMN 200 uM): 42.9 nM
apparent KD of MS2 coat protein (input ligand: none): 43 nM

GUAUACAGAGGAUAUACGUGCGGCGUCAAAUGUCCAAGAGUACAUGAGGAUCACCCAUGUAGAAGGUUGAAAGC [Eternabot (L1) Solution 15] (Eterna round: R97, puzzle: Exclusion 2)
apparent KD of MS2 coat protein (input ligand: FMN 200 uM): 21.7 nM
apparent KD of MS2 coat protein (input ligand: none): 26.6 nM

GUAUGUUAUGAGGAUAUCGGUGAACAUACACAUCGAGAAGGCAUGACAUGAGGAUCACCCAUGUCAAGGAUGAG [Exclusion 6 - B - 18:c] (puzzle: Exclusion 6)
apparent KD of MS2 coat protein [3]: 71.9 nM
apparent KD of MS2 coat protein [2]: 17.7 nM
apparent KD of MS2 coat protein [4]: 22.7 nM

GUAUGUUAUGAGGAUAUCGGUGAACAUACACAUCGAGAAGGCAUGACAUGAGGAUCACCCAUGUCGAGGAUGAA [Exclusion 6 - B - 18:e] (puzzle: Exclusion 6)
apparent KD of MS2 coat protein [3]: 47.2 nM
apparent KD of MS2 coat protein [2]: 18 nM
apparent KD of MS2 coat protein [4]: 23.7 nM

GUCACAUGGACAUAGGAUCACAUGAGGAUCACCCAUGUGACUAACAAGCUUUUUGUUCGUCUUAUGUCCAUGUGAAU [Stov1/15-B1] (Eterna round: R97, puzzle: Sensor, turn-off variant 1)
apparent KD of MS2 coat protein (input ligand: FMN 200 uM): 13.7 nM
apparent KD of MS2 coat protein (input ligand: none): 12 nM

GUCACUAGAGGAUAUACAAUGGUAUAUGAUCCUAGAGACAUACAUGAGGAUCACCCAUGUAGAAGGCUAGUAUU [Exclusion 2 - 5] (Eterna round: R96, puzzle: Exclusion 2)
apparent KD of MS2 coat protein (input ligand: FMN 200 uM): 52.9 nM
apparent KD of MS2 coat protein [1]: 53.1 nM
apparent KD of MS2 coat protein (input ligand: none): 52.5 nM

GUCACUAGAGGAUAUACAAUGGUAUAUGAUCCUAGAGACAUACAUGAGGAUCACCCAUGUAGAAGGCUAGUAUU [Exclusion 2 - 5] (puzzle: Exclusion 2)
apparent KD of MS2 coat protein [2]: 58.3 nM

GUCAGACGAGGAUAUAAAUUUGAUAACAUGAGGAUCACCCAUGUGAUCGAUAGAUCAAAUUUAGAAGGCGUCUGAC [E5/7-A4] (Eterna round: R97, puzzle: Exclusion 5)
apparent KD of MS2 coat protein (input ligand: FMN 200 uM): 520 nM
apparent KD of MS2 coat protein (input ligand: none): 492 nM

GUCAGACGAGGAUAUAGAUUUAGAUACAUGAGGAUCACCCAUGUAUAUAUGUAUUUAGAUUUAGAAGGCGUCUGAC [E5/15-A3] (Eterna round: R97, puzzle: Exclusion 5)
apparent KD of MS2 coat protein (input ligand: FMN 200 uM): 187 nM
apparent KD of MS2 coat protein (input ligand: none): 240 nM

GUCAGACGAGGAUAUGAUUAAUAAUACAUGAGGAUCACCCAUGUAAUACUGAUCUAUGGAUCAGAAGGCGUCUGAC [E5/6-A4] (Eterna round: R97, puzzle: Exclusion 5)
apparent KD of MS2 coat protein (input ligand: FMN 200 uM): 15 nM
apparent KD of MS2 coat protein (input ligand: none): 16.1 nM

GUCAGCUCGUCAGGAUAUACAUGAGGAUCACCCAUGUGAUCAAUAGCAGCUUCGGCUGCAUUAAUGUAGAAGGGACGAGCUGAU [ENG2/5-B2] (Eterna round: R96, puzzle: Exclusion NG 2)
apparent KD of MS2 coat protein [1]: 168 nM
